Measured values taken from US20090061443.

Target: T1, Flag-CALM-AF10 fusion protein (wild-type), Q13492
T1 chain: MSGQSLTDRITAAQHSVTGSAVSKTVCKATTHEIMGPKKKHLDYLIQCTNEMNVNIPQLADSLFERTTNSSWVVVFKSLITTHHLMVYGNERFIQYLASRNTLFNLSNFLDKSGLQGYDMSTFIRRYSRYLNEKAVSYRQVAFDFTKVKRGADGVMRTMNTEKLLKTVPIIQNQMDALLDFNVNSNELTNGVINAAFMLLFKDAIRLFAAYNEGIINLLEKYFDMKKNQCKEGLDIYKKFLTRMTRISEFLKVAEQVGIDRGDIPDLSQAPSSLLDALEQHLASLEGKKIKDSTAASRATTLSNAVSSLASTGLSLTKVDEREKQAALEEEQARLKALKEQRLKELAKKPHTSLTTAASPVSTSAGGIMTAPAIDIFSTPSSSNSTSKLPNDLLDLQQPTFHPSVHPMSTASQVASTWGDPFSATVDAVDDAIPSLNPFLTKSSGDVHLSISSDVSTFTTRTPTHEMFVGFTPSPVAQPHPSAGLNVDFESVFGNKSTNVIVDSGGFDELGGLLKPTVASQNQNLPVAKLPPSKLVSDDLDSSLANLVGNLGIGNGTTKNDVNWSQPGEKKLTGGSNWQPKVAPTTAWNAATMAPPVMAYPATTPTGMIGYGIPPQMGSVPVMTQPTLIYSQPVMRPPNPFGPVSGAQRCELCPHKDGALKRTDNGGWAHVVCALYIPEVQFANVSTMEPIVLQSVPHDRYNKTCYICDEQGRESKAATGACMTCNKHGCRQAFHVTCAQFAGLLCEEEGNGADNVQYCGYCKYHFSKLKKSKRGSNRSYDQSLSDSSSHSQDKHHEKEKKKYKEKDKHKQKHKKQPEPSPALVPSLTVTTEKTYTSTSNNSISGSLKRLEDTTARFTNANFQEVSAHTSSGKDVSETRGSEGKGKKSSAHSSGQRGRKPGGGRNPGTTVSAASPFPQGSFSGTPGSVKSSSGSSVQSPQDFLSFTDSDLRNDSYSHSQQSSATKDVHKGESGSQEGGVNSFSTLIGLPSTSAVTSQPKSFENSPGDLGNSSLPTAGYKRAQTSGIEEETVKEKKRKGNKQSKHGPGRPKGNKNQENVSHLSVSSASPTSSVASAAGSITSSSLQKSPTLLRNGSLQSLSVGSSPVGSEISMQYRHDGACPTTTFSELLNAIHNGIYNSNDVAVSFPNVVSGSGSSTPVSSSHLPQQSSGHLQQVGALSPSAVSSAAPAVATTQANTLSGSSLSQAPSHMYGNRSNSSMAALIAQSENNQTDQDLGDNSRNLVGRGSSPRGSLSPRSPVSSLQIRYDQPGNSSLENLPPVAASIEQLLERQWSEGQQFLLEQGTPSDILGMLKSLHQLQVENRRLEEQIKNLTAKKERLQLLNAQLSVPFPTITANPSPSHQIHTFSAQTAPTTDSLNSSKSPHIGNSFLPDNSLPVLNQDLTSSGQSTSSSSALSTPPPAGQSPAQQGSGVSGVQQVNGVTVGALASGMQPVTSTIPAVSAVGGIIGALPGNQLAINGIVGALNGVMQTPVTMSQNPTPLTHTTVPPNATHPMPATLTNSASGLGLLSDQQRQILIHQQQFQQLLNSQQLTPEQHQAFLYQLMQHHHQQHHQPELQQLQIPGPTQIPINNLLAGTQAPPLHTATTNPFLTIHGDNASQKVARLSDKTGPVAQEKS

B1: hDOT1L (human DOT1-like protein) (protein)
chain: MGEKLELRLKSPVGAEPAVYPWPLPVYDKHHDAAHEIIETIRWVCEEIPDLKLAMENYVLIDYDTKSFESMQRLCDKYNRAIDSIHQLWKGTTQPMKLNTRPSTGLLRHILQQVYNHSVTDPEKLNNYEPFSPEVYGETSFDLVAQMIDEIKMTDDDLFVDLGSGVGQVVLQVAAATNCKHHYGVEKADIPAKYAETMDREFRKWMKWYGKKHAEYTLERGDFLSEEWRERIANTSVIFVNNFAFGPEVDHQLKERFANMKEGGRIVSSKPFAPLNFRINSRNLSDIGTIMRVVELSPLKGSVSWTGKPVSYYLHTIDRTILENYFSSLKNPKLREEQEAARRRQQRESKSNAATPTKGPEGKVAGPADAPMDSGAEEEKAGAATVKKPSPSKARKKKLNKKGRKMAGRKRGRPKKMNTANPERKPKKNQTALDALHAQTVSQTAASSPQDAYRSPHSPFYQLPPSVQRHSPNPLLVAPTPPALQKLLESFKIQYLQFLAYTKTPQYKASLQELLGQEKEKNAQLLGAAQQLLSHCQAQKEEIRRLFQQKLDELGVKALTYNDLIQAQKEISAHNQQLREQSEQLEQDNRALRGQSLQLLKARCEELQLDWATLSLEKLLKEKQALKSQISEKQRHCLELQISIVELEKSQRQQELLQLKSCVPPDDALSLHLRGKGALGRELEPDASRLHLELDCTKFSLPHLSSMSPELSMNGQAAGYELCGVLSRPSSKQNTPQYLASPLDQEVVPCTPSHVGRPRLEKLSGLAAPDYTRLSPAKIVLRRHLSQDHTVPGRPAASELHSRAEHTKENGLPYQSPSVPGSMKLSPQDPRPLSPGALQLAGEKSSEKGLRERAYGSSGELITSLPISIPLSTVQPNKLPVSIPLASVVLPSRAERARSTPSPVLQPRDPSSTLEKQIGANAHGAGSRSLALAPAGFSYAGSVAISGALAGSPASLTPGAEPATLDESSSSGSLFATVGSRSSTPQHPLLLAQPRNSLPASPAHQLSSSPRLGGAAQGPLPEASKGDLPSDSGFSDPESEAKRRIVFTITTGAGSAKQSPSSKHSPLTASARGDCVPSHGQDSRRRGRRKRASAGTPSLSAGVSPKRRALPSVAGLFTQPSGSPLNLNSMVSNINQPLEITAISSPETSLKSSPVPYQDHDQPPVLKKERPLSQTNGAHYSPLTSDEEPGSEDEPSSARIERKIATISLESKSPPKTLENGGGLAGRKPAPAGEPVNSSKWKSTFSPISDIGLAKSADSPLQASSALSQNSLFTFRPALEEPSADAKLAAHPRKGFPGSLSGADGLSPGTNPANGCTFGGGLAADLSLHSFSDGASLPHKGPEAAGLSSPLSFPSQRGKEGSDANPFLSKRQLDGLAGLKGEGSRGKEAGEGGLPLCGPTDKTPLLSGKAAKARDREVDLKNGHNLFISAAAVPPGSLLSGPGLAPAASSAGGAASSAQTHRSFLGPFPPGPQFALGPMSLQANLGSVAGSSVLQSLFSSVPAAAGLVHVSSAATRLTNSHAMGSFSGVAGGTVGGN
confocal microscopy of co-expressed hDOT1L and CALM-AF10: High resolution analysis of the proteins indicates that they colocalize in the nucleus
